Experimental findings from patent US20120040915A1 (MAYO FOUNDATION FOR MEDICAL EDUCATION AND RESEARCH, published 2012) are described below.

Ends that are not written are not given here. * marks the point of attachment. Biotin = O=C1N[C@H]2[C@H](CS[C@H]2CCCCC(=O)*)N1

For the test, the target named is T1, PDZ domain of GIPC/synectin displayed on T7 phage (UniProt O14908 133-213, limits assumed).
T1 construct: domain: PDZ domain; also called GIPC/Synectin-PDZ T7 phage; GIPC-PDZ
T1 sequence (looked up): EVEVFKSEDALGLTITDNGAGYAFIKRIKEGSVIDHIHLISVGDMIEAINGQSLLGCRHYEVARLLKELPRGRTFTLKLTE
Nature of the test: phage ELISA, biotinylated peptide on Neutravidin plate, GIPC-PDZ T7 phage. Here is the method: Neutravidin plates (Pierce) were coated in duplicate with 100 μL of 10 μg/mL solutions of N-terminal biotinylated peptides ([…] (SEQ ID NO: 3) (from GAIP), KKETEV (SEQ ID NO: 12) and KKETAV (SEQ ID NO: 13) (two sequences that bind PDZ3 of PSD-95 (21), and allowed to incubate 1-2 h at 37° C. (or overnight at 4° C.) with mild shaking. The unbound peptides were washed away three times with TBS (0.5% Tween-20)-TBST buffer. Blocking buffer was prepared by diluting BSA […] in TBS stock two-fold in dH2O (for a 5% BSA final concentration) and free biotin (1 mM). Alternatively, SuperBlock in PBS buffer (Pierce) with free biotin (1 mM) was used. The blocking buffer was added to each well and allowed to incubate 30-60 min at 37° C. with mild shaking. The blocking buffer was washed away with TBST by inverting the plate and tapping off the excess with each of the 4-5 washes. The GIPC/Synectin-PDZ T7 phage to be screened with the biotinylated peptides were prepared by adding phage stock (1 mL, 20 μL) derived from one of the eight plaques (discussed above) to freshly harvested BLT5403 E. coli at OD ˜1. Once lysis was observed, the cell debris was spun down and phage lysate was used in a plaque assay (as discussed above) to determine the titer (phage titer added to wells 5×10⁹ pfu). […] The substrate was added to each well, and the development was measured at 405 nm after 30 min, 1 h and 2 h.
Background: An ELISA detects its analyte on a solid surface through an enzyme-linked reagent.

In the case of Biotin-KKETEV (Comparison peptide in the phage ELISA) [N-terminal biotinylated peptide KKETEV (SEQ ID NO: 12)], the binding result is recorded as “no binding”. Take Biotin-KKETAV (Comparison peptide in the phage ELISA) [N-terminal biotinylated peptide KKETAV (SEQ ID NO: 13)]: the binding result is listed as “no binding”.
